In patent US20110274696A1 (Amgen, published 2011):
Where “and” joins values, the source holds several entries; their conditions need not be identical. Equal entries are not always repeated. Where no end group is shown, it is not given here.

Columns and labels:
[1] = molecular target: T1, biotinylated CCR2 loop 2 peptide (human, biotinylated (position not given)); assay: peptide ELISA, biotinylated peptide on NeutrAvidin plate
T1 construct: Synthetic peptide (AnaSpec) captured on a NeutrAvidin plate; also called second extracellular loop peptide
T1 peptide: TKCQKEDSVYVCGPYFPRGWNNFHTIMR
Procedure: (§1) In addition, epitope binding to the first and/or second loop of CCR2 was also assessed using a peptide ELISA. A Reacti-Bind NEUTRAVIDIN™ Coated, High Binding Capacity ELISA plate (Pierce; Rockford, Ill.) was washed 3× with PBS/0.05% Tween20 and then coated with 100 ul/well of 6 ug/ml biotinylated CCR2 loop 2 (SEQ ID NO:129) or loop 3 (SEQ ID NO:130) peptide (AnaSpec; San Jose, Calif.). The plate was incubated for 1 hour and then washed 3×. The CCR2 antagonist antibody 4.40.3 A68G S230P or other primary antibody, diluted in PBS/0.1% BSA/0.05% Tween20, was then added to the plate in serial dilution and incubated for 1 hour, as were other controls. The plate was washed 3× and 100 ul/well HRP-Mouse anti-Human IgG4 secondary antibody (Zymed; So. San Francisco, Calif.) was added to all the wells at 1:5000 dilution and incubated for 1 hour. The plate was washed 3× and TMB substrate was added to all the wells and incubated for ˜30 minutes. The color reaction was stopped with 2M H₂SO₄ and the absorbance reading was measured on a plate reader at […] (FIG. 8).

[2] = molecular target: T2, human CCR2 (human, UniProt P41597-2 1-360); assay: cell-based or functional assay
T2 sequence: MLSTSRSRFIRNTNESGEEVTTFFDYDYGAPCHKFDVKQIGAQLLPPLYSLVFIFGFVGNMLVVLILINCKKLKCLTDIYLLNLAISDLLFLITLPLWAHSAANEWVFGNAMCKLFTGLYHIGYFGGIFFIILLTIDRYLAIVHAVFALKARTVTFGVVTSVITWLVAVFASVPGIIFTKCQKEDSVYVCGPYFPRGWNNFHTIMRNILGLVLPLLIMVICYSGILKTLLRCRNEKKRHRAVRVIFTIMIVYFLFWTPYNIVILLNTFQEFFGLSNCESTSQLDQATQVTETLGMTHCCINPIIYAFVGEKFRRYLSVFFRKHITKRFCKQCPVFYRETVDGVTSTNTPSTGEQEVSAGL

[3] = molecular target: T2, human CCR2; assay: cell-based or functional assay; remark: listed apart in the source
[4] = molecular target: T3, biotinylated CCR2 loop 3 peptide (human, also: biotinylated, position not given here); assay: peptide ELISA
T3 construct: Synthetic peptide (AnaSpec) captured on a NeutrAvidin plate; also called third loop
T3 peptide: QEFFGLSNCESTSQLDQ
Procedure: as §1

[5] = molecular target: cynomolgus monkey CCR2 (cynomolgus monkey); assay: cell-based or functional assay
[6] = molecular target: T2, human CCR2; assay: cell-based or functional assay; remark: listed apart in the source
[7] = molecular target: T2, human CCR2; assay: FACS saturation binding, 3 hour assay, 300-19 cells expressing human CCR2; full-length human CCR2 on transfected 300-19 cells, not the chimera; KD in ug/mL
Procedure: (§2) Briefly, using a buffer of Dulbecco's Phosphate Buffered Saline containing 2% heat inactivated Fetal Bovine Serum, 0.002% Sodium Azide and 0.005 mg/ml Cytochalasin-B (Sigma 6762), 1 million cells in a volume of 100 ul were stained with the test antibody. Fifteen minutes later, a secondary detection antibody, R-Phycoerythrin conjugated Affini-pure F(ab′) fragment Donkey anti-human IgG H+L (Jackson 709-116-149), was added. Tubes were gently shaken for 3 hours at room temperature. After 2 washes in buffer, cells were resuspended in 500 ul of buffer and assessed on a FACS CALIBUR™. A total of 10,000 events per tube were assessed. The mean channel fluorescent intensity was assessed for each concentration of antibody as an indicator for the magnitude of staining.

[8] = molecular target: T1, biotinylated CCR2 loop 2 peptide; assay: capture ELISA, biotinylated CCR2 loop 2 peptide on a NeutrAvidin plate, HRP anti-human IgG4, absorbance at 450 nm
Procedure: as §1

[9] = molecular target: T2, human CCR2; assay: FACS saturation binding (3 hour assay) on CCR2 transfected 300-19 cells, PE anti-human IgG detection
Procedure: as §2

[10] = molecular target: T3, biotinylated CCR2 loop 3 peptide; assay: capture ELISA, biotinylated CCR2 loop 3 peptide on a NeutrAvidin plate, HRP anti-human IgG4, absorbance at 450 nm
Procedure: as §1

[11] = molecular target: T4, CCR5 (human, UniProt P51681 1-352); assay: FACS, AF-488 conjugated antibody on 300-19 cells expressing recombinant CCR5
T4 construct: also called recombinant CCR5; human CCR5
T4 sequence (P51681 whole entry): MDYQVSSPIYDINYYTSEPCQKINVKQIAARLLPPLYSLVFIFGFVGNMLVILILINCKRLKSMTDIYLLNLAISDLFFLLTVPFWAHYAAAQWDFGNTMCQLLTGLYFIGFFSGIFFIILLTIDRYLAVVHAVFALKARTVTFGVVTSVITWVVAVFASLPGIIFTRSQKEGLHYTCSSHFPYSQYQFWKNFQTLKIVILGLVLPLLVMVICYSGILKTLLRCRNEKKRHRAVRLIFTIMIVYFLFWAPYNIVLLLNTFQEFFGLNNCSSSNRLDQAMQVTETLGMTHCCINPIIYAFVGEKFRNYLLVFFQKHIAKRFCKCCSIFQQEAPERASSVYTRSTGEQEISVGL
Procedure: The selectivity of the 4.40 A68G S230P antibody for human CCR2 was confirmed by the absence of binding to a closely related chemokine receptor, CCR5, as shown in FIG. 9 and by the lack of inhibition of chemotaxis induced by the CCR5/CCR1 ligand MIP-1a (FIG. 3). […] For these studies, 300.19 cells engineered to express CCR5 were incubated with either the CCR2 selective antibody, 4.40 A68G S230P, or the CCR5-selective antibody for 30 minutes. Cells were then washed in FACS buffer (0.02% sodium azide, 2% heat inactivated fetal bovine serum in PBS) and analyzed for cell surface expression using a flow cytometer using standard methods.

[12] = molecular target: T5, RMMR chimeric receptor (N-terminus and 3rd loop of CCR1; 1st and 2nd loops of CCR2), FLAG-tagged; assay: FACS saturation binding on RMMR chimera transfected 300-19 cells
T5 construct: also called 1st and 2nd loops of CCR2 (RMMR)
Procedure: as §2, with “Fifteen” for “Briefly, using a buffer of Dulbecco's Phosphate Buffered Saline containing 2% heat inactivated Fetal Bovine Serum, 0.002% Sodium Azide and 0.005 mg/ml Cytochalasin-B (Sigma 6762), 1 million cells in a volume of 100 ul were stained with the test antibody. Fifteen”
(§3) Binding of antibodies to the CCR2/CCR1 chimeric receptors was assessed using FACS analysis. All receptors were tagged at the N-terminus with FLAG and also stained with the anti-FLAG antibody M1 such that receptor expression could be confirmed. FIGS. 6A & B illustrate the FACS staining of FLAG on the N-terminus with M1 antibody (FIG. 6A) as compared to the staining of 4.40 (FIG. 6B). FIG. 6C illustrates a saturation binding curve of the 4.40 A68G S230P antibody on RMMR chimera transfected 300-19 cells.

[13] = molecular target: T5, RMMR chimeric receptor (N-terminus and …); assay: FACS saturation binding on 300-19 cells expressing the chimera with the first and second extracellular loops of CCR2 (FIG. 6C)
Procedure: as §2, with “Fifteen” for “Briefly, using a buffer of Dulbecco's Phosphate Buffered Saline containing 2% heat inactivated Fetal Bovine Serum, 0.002% Sodium Azide and 0.005 mg/ml Cytochalasin-B (Sigma 6762), 1 million cells in a volume of 100 ul were stained with the test antibody. Fifteen”
as §3

B1: anti-CCR2 monoclonal antibody 4.40 (antibody, V domains shown)
VH: QVQLVESGGGVVQPGRSLRLSCAASGLTFSSYGMHWVRQAPGKGLEWVAVILYDGKNKYYADSVKGRFTISRDNSKNTLYLQMNSLRAEDTAVYYCARDQAYWTYFDAFDIWGQGTMVTVSS
VL: EIVLTQSPDFQSVTPKEKVTITCRASQSIGSSLHWYQQKPDQSPKLLIKYASQSFSGVPSRFSGSGSATDFTLTINSLEAEDAATYYCHQSSSLPLTFGGGTKVEIKR
notes: Hybridoma clone from IgG4 XenoMouse mice; Variable domains were also cloned into IgG1, IgG2 and IgG4 formats; also called 4.40.2; 4.40.3
binding result [1]: binds | Chemotaxis IC50 [2]: 0.13 µg/mL | Inhibition of MCP-1-induced THP-1 Chemotaxis, IC50 [3]: 0.137 µg/mL | binding result [4]: no binding

B2: anti-CCR2 monoclonal antibody 4.9 (antibody, human IgG4, kappa, V domains shown)
VH: QVQLVESGGGVVQPGRSLRLSCAASGFTFSSYGMHWVRQAPGKGLEWVAVQTYDGRNKYYADSVKGRFTISRDNSKKTLYLQMNRLRAEDTAVYYCARDQAYWKYFDAFDIWGQGTMVTVSS
VL: DIQMTQSPSSLSTSVGDRVTITCRASQSISSYLNWYQQKPGKAPKLLIYAASSLQSGVPSRFSGSGSGTDFTLTISSLQPEDFATYYCQQSYNSPCSFGQGTKLEIKR
notes: Hybridoma clone from IgG4 XenoMouse mice; also called 4.9.2; 4.9.3
binding result [1]: binds | Chemotaxis IC50 [2]: 0.198 µg/mL | Inhibition of MCP-1-induced THP-1 Chemotaxis, IC50 [3]: 0.198 µg/mL | binding result [4]: no binding

B3: anti-CCR2 antibody 4.40 A68G S230P (antibody, human IgG4 S228P, kappa, V domains shown)
VH: QVQLVESGGGVVQPGRSLRLSCAASGLTFSSYGMHWVRQAPGKGLEWVAVILYDGKNKYYADSVKGRFTISRDNSKNTLYLQMNSLRAEDTAVYYCARDQAYWTYFDAFDIWGQGTMVTVSS
VL: EIVLTQSPDFQSVTPKEKVTITCRASQSIGSSLHWYQQKPDQSPKLLIKYASQSFSGVPSRFSGSGSGTDFTLTINSLEAEDAATYYCHQSSSLPLTFGGGTKVEIKR
notes: Recombinant human IgG4 with the hinge mutation S230P (heavy chain) and the germline reversion A68G (light chain) of 4.40; also called 4.40.3 A68G S230P; 4.40.2 A68G S230P
inhibition of MCP-1 induced whole blood actin polymerization in the cynomolgus monkey, IC50 [5]: 0.49 µg/mL | inhibition of MCP-1 induced actin polymerization in monocytes, human whole blood, IC50 [6]: 0.168 µg/mL | inhibition of MCP-1 induced pERK phosphorylation in human whole blood, IC50 [6]: 0.44 µg/mL and 2.9 nM | inhibition of chemotaxis of THP-1 monocytes in response to MCP-1, IC50 [6]: 0.148 µg/mL | inhibition of collagen IAI mRNA synthesis in LI90 cells induced by MCP-1, IC50 [6]: 0.89 µg/mL and 6.2 nM | Kd [7]: 0.085 µg/mL | binding result [8]: binds | EC50 (read off the curve) [9]: ~0.08 µg/mL | Kd [9]: 0.0849 µg/mL | binding result [10]: no binding (tested: about 6 ug/ml) | binding result [11]: no binding | EC50 (read off the curve) [12]: ~0.05 µg/mL | Kd [12]: 0.0226 µg/mL | Kd [13]: 0.023 µg/mL and 0.16 nM

B4: anti-CCR2 monoclonal antibody 4.39.3 (antibody, human IgG4, kappa, V domains shown)
VH: QVQLVQSGAEVKKPGASVKVSCKASGYTFTSYYIHWVRQAPGQGLEWMGMINPSGGPTSYAQKFQGRVTMTRDTSTSTVYMDLSSLRSEDTAVFYCARERWYKWNFDAFDIWGQGTMVTVSS
VL: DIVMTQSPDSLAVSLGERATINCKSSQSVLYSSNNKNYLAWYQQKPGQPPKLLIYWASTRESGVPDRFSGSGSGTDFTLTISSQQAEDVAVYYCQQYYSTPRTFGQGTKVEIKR
Chemotaxis IC50 [2]: 0.139 µg/mL | Inhibition of MCP-1-induced THP-1 Chemotaxis, IC50 [3]: 0.139 µg/mL
